Test results reported in the supplement of paper PMC9112550, “Optimization of the antimicrobial peptide Bac7 by deep mutational scanning” (BMC Biology, 2022).

System: Escherichia coli TOP10
Experiment: shrunken log2 fold change of peptide-encoding DNA abundance (4.5 h post-induction vs induction); higher = less antimicrobial activity (less host growth inhibition)
Conditions: time post-induction: 4.5 h; library: site-saturation at positions 5, 18, 19, 20
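Further: peptides expressed intracellularly from a pBAD plasmid library in pooled LB shake-flask culture, induced with 0.3% L-arabinose, DNA abundance read by NGS, three biological replicates, DESeq2 with apeglm shrinkage.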

RRIRLRPPRLPRPRPRPDPIPRP
shrunken log2 fold change: 0.0451

RRIRFRPPRLPRPRPRPCGRPRP
shrunken log2 fold change: 0.156

RRIRFRPPRLPRPRPRPFYMPRP
shrunken log2 fold change: -0.317

RRIRNRPPRLPRPRPRPYMFPRP
shrunken log2 fold change: -0.216

RRIRYRPPRLPRPRPRPVKIPRP
shrunken log2 fold change: -0.0138

RRIRVRPPRLPRPRPRPFYEPRP
shrunken log2 fold change: -0.453

RRIRMRPPRLPRPRPRPWKCPRP
shrunken log2 fold change: -0.174

RRIRCRPPRLPRPRPRPCCDPRP
shrunken log2 fold change: -0.27

RRIRHRPPRLPRPRPRPFVVPRP
shrunken log2 fold change: -0.16

RRIRGRPPRLPRPRPRPVLTPRP
shrunken log2 fold change: 0.834

RRIRSRPPRLPRPRPRPYCNPRP
shrunken log2 fold change: -0.709

RRIRYRPPRLPRPRPRPSQRPRP
shrunken log2 fold change: -0.0178

RRIRGRPPRLPRPRPRPIPTPRP
shrunken log2 fold change: 0.00615

RRIRLRPPRLPRPRPRPDEKPRP
shrunken log2 fold change: -0.00968

RRIRKRPPRLPRPRPRPYGYPRP
shrunken log2 fold change: -0.0282

RRIRCRPPRLPRPRPRPGMDPRP
shrunken log2 fold change: -0.0572

RRIRSRPPRLPRPRPRPECIPRP
shrunken log2 fold change: 0.00247

RRIRARPPRLPRPRPRPFCAPRP
shrunken log2 fold change: 0.394

RRIRLRPPRLPRPRPRPQYLPRP
shrunken log2 fold change: -0.0559

RRIRNRPPRLPRPRPRPYVQPRP
shrunken log2 fold change: -0.0341

RRIRGRPPRLPRPRPRPNFVPRP
shrunken log2 fold change: -0.0668

RRIRVRPPRLPRPRPRPQPYPRP
shrunken log2 fold change: -0.486

RRIRERPPRLPRPRPRPPHPPRP
shrunken log2 fold change: -0.0298

RRIRWRPPRLPRPRPRPWHEPRP
shrunken log2 fold change: 0.356

RRIRDRPPRLPRPRPRPQGYPRP
shrunken log2 fold change: -0.0816

RRIRCRPPRLPRPRPRPGDNPRP
shrunken log2 fold change: -0.125

RRIRHRPPRLPRPRPRPRMIPRP
shrunken log2 fold change: -8.79e-05

RRIRRRPPRLPRPRPRPAQFPRP
shrunken log2 fold change: 0.135

RRIRERPPRLPRPRPRPDLWPRP
shrunken log2 fold change: -0.141

RRIRVRPPRLPRPRPRPSECPRP
shrunken log2 fold change: 0.0274

RRIRPRPPRLPRPRPRPCWNPRP
shrunken log2 fold change: -0.0418

RRIRNRPPRLPRPRPRPDMEPRP
shrunken log2 fold change: -0.0836

RRIRIRPPRLPRPRPRPNFKPRP
shrunken log2 fold change: -0.144

RRIRYRPPRLPRPRPRPITRPRP
shrunken log2 fold change: 0.0448

RRIRDRPPRLPRPRPRPSHQPRP
shrunken log2 fold change: -0.211

RRIRHRPPRLPRPRPRPWRVPRP
shrunken log2 fold change: 0.0326

RRIRARPPRLPRPRPRPVFIPRP
shrunken log2 fold change: -0.201

RRIRCRPPRLPRPRPRPEQMPRP
shrunken log2 fold change: 0.45

RRIRMRPPRLPRPRPRPFHQPRP
shrunken log2 fold change: -0.0752

RRIRHRPPRLPRPRPRPYDKPRP
shrunken log2 fold change: -0.961

RRIRTRPPRLPRPRPRPQQPPRP
shrunken log2 fold change: 0.153

RRIRTRPPRLPRPRPRPHMNPRP
shrunken log2 fold change: -0.547

RRIRSRPPRLPRPRPRPEIMPRP
shrunken log2 fold change: 0.0625

RRIRHRPPRLPRPRPRPLMEPRP
shrunken log2 fold change: -0.348

RRIRARPPRLPRPRPRPYYKPRP
shrunken log2 fold change: -0.675

RRIRGRPPRLPRPRPRPEYHPRP
shrunken log2 fold change: 0.155

RRIRTRPPRLPRPRPRPTVNPRP
shrunken log2 fold change: -0.217

RRIRQRPPRLPRPRPRPPCNPRP
shrunken log2 fold change: -0.115

RRIRTRPPRLPRPRPRPYNFPRP
shrunken log2 fold change: 0.0438

RRIRYRPPRLPRPRPRPWWEPRP
shrunken log2 fold change: -0.0644

RRIRQRPPRLPRPRPRPWSEPRP
shrunken log2 fold change: -0.266

RRIRTRPPRLPRPRPRPKNIPRP
shrunken log2 fold change: -0.627

RRIRYRPPRLPRPRPRPYFWPRP
shrunken log2 fold change: -1.4

RRIRDRPPRLPRPRPRPRRWPRP
shrunken log2 fold change: 0.453

RRIRIRPPRLPRPRPRPMICPRP
shrunken log2 fold change: -0.224

RRIRARPPRLPRPRPRPPYWPRP
shrunken log2 fold change: 0.376

RRIRVRPPRLPRPRPRPDQNPRP
shrunken log2 fold change: -0.0845

RRIRQRPPRLPRPRPRPCSLPRP
shrunken log2 fold change: -1.03

RRIRPRPPRLPRPRPRPNLPPRP
shrunken log2 fold change: -0.142

RRIRMRPPRLPRPRPRPLDLPRP
shrunken log2 fold change: 0.062

RRIRKRPPRLPRPRPRPCKNPRP
shrunken log2 fold change: -0.0355

RRIRNRPPRLPRPRPRPVCNPRP
shrunken log2 fold change: -0.222

RRIRIRPPRLPRPRPRPCWGPRP
shrunken log2 fold change: 0.162

RRIRARPPRLPRPRPRPIIHPRP
shrunken log2 fold change: -0.216

RRIRSRPPRLPRPRPRPIYDPRP
shrunken log2 fold change: 0.0384

RRIRVRPPRLPRPRPRPRMDPRP
shrunken log2 fold change: -0.371

RRIRDRPPRLPRPRPRPSSFPRP
shrunken log2 fold change: -0.178

RRIRCRPPRLPRPRPRPKPEPRP
shrunken log2 fold change: 0.377

RRIRSRPPRLPRPRPRPRWFPRP
shrunken log2 fold change: 0.0783

RRIRRRPPRLPRPRPRPVIMPRP
shrunken log2 fold change: 0.189

RRIRIRPPRLPRPRPRPDQFPRP
shrunken log2 fold change: -0.321

RRIRQRPPRLPRPRPRPFCQPRP
shrunken log2 fold change: 0.53

RRIRERPPRLPRPRPRPVYVPRP
shrunken log2 fold change: -1.11

RRIRVRPPRLPRPRPRPCTKPRP
shrunken log2 fold change: -0.275

RRIRIRPPRLPRPRPRPFARPRP
shrunken log2 fold change: -0.0891

RRIRSRPPRLPRPRPRPLCAPRP
shrunken log2 fold change: 0.281

RRIRPRPPRLPRPRPRPYLSPRP
shrunken log2 fold change: -0.509

RRIRRRPPRLPRPRPRPLMKPRP
shrunken log2 fold change: -0.12

RRIRIRPPRLPRPRPRPHLGPRP
shrunken log2 fold change: 0.0798

RRIRYRPPRLPRPRPRPWDQPRP
shrunken log2 fold change: 0.0123

RRIRPRPPRLPRPRPRPRHGPRP
shrunken log2 fold change: 0.0491

RRIRIRPPRLPRPRPRPWYEPRP
shrunken log2 fold change: -0.0153

RRIRERPPRLPRPRPRPYHMPRP
shrunken log2 fold change: -0.021

RRIRLRPPRLPRPRPRPFLWPRP
shrunken log2 fold change: -0.314

RRIRGRPPRLPRPRPRPGIQPRP
shrunken log2 fold change: 0.591

RRIRQRPPRLPRPRPRPSFAPRP
shrunken log2 fold change: 0.0485

RRIRGRPPRLPRPRPRPDQVPRP
shrunken log2 fold change: 0.656

RRIRDRPPRLPRPRPRPDHWPRP
shrunken log2 fold change: 0.0704

RRIRTRPPRLPRPRPRPCHGPRP
shrunken log2 fold change: -0.0399

RRIRFRPPRLPRPRPRPPAPPRP
shrunken log2 fold change: 1.07

RRIRTRPPRLPRPRPRPRFWPRP
shrunken log2 fold change: 0.0622

RRIRGRPPRLPRPRPRPLPMPRP
shrunken log2 fold change: 0.666

RRIRARPPRLPRPRPRPNMSPRP
shrunken log2 fold change: 0.12

RRIRARPPRLPRPRPRPWRAPRP
shrunken log2 fold change: 0.338

RRIRERPPRLPRPRPRPAFLPRP
shrunken log2 fold change: -0.289

RRIRERPPRLPRPRPRPFFVPRP
shrunken log2 fold change: -0.292

RRIRLRPPRLPRPRPRPKWRPRP
shrunken log2 fold change: 0.39

RRIRSRPPRLPRPRPRPLYEPRP
shrunken log2 fold change: -0.438

RRIRKRPPRLPRPRPRPSSQPRP
shrunken log2 fold change: 0.0821

RRIRIRPPRLPRPRPRPMHTPRP
shrunken log2 fold change: 0.0542

RRIRWRPPRLPRPRPRPGWPPRP
shrunken log2 fold change: 0.644

RRIRKRPPRLPRPRPRPMRMPRP
shrunken log2 fold change: 1.84

RRIRNRPPRLPRPRPRPCTVPRP
shrunken log2 fold change: -0.8

RRIRRRPPRLPRPRPRPNCTPRP
shrunken log2 fold change: 0.00402

RRIRVRPPRLPRPRPRPVCPPRP
shrunken log2 fold change: 0.0825

RRIRRRPPRLPRPRPRPNISPRP
shrunken log2 fold change: -0.263

RRIRMRPPRLPRPRPRPTPFPRP
shrunken log2 fold change: 0.715

RRIRNRPPRLPRPRPRPLMHPRP
shrunken log2 fold change: -0.0721

RRIRDRPPRLPRPRPRPSLQPRP
shrunken log2 fold change: 0.073

RRIRMRPPRLPRPRPRPGYEPRP
shrunken log2 fold change: 0.247

RRIRPRPPRLPRPRPRPFWIPRP
shrunken log2 fold change: -0.161

RRIRLRPPRLPRPRPRPWLLPRP
shrunken log2 fold change: -0.172

RRIRNRPPRLPRPRPRPEPVPRP
shrunken log2 fold change: -0.0258

RRIRMRPPRLPRPRPRPTERPRP
shrunken log2 fold change: 0.582

RRIRQRPPRLPRPRPRPHWRPRP
shrunken log2 fold change: -0.374

RRIRERPPRLPRPRPRPVAPPRP
shrunken log2 fold change: 0.246

RRIRMRPPRLPRPRPRPTARPRP
shrunken log2 fold change: 1.22

RRIRARPPRLPRPRPRPFEHPRP
shrunken log2 fold change: 0.172

RRIRARPPRLPRPRPRPLRWPRP
shrunken log2 fold change: 0.809

RRIRWRPPRLPRPRPRPTLPPRP
shrunken log2 fold change: 0.128

RRIRGRPPRLPRPRPRPRDCPRP
shrunken log2 fold change: 1.11

RRIRERPPRLPRPRPRPNILPRP
shrunken log2 fold change: -0.991

RRIRNRPPRLPRPRPRPLLQPRP
shrunken log2 fold change: -0.137

RRIRERPPRLPRPRPRPIIDPRP
shrunken log2 fold change: -0.0746

RRIRIRPPRLPRPRPRPIVCPRP
shrunken log2 fold change: 0.000993

RRIRIRPPRLPRPRPRPFHHPRP
shrunken log2 fold change: 0.0886

RRIRIRPPRLPRPRPRPVVGPRP
shrunken log2 fold change: 0.0233

RRIRFRPPRLPRPRPRPLGDPRP
shrunken log2 fold change: 0.4

RRIRLRPPRLPRPRPRPVAWPRP
shrunken log2 fold change: 0.225

RRIRFRPPRLPRPRPRPKIYPRP
shrunken log2 fold change: -0.328

RRIRSRPPRLPRPRPRPLFAPRP
shrunken log2 fold change: 0.0687

RRIRYRPPRLPRPRPRPTKYPRP
shrunken log2 fold change: -0.836

RRIRGRPPRLPRPRPRPMILPRP
shrunken log2 fold change: -0.0452

RRIRDRPPRLPRPRPRPAFIPRP
shrunken log2 fold change: -0.115

RRIRERPPRLPRPRPRPETCPRP
shrunken log2 fold change: -0.127

RRIRYRPPRLPRPRPRPAMEPRP
shrunken log2 fold change: 0.0738

RRIRPRPPRLPRPRPRPVATPRP
shrunken log2 fold change: 0.524

RRIRIRPPRLPRPRPRPKSAPRP
shrunken log2 fold change: -0.0724

RRIRSRPPRLPRPRPRPGPHPRP
shrunken log2 fold change: -0.109

RRIRWRPPRLPRPRPRPTECPRP
shrunken log2 fold change: 0.0746

RRIRMRPPRLPRPRPRPGKPPRP
shrunken log2 fold change: 0.0496

RRIRSRPPRLPRPRPRPRIKPRP
shrunken log2 fold change: -0.00375

RRIRERPPRLPRPRPRPDAMPRP
shrunken log2 fold change: -0.0916

RRIRGRPPRLPRPRPRPEDWPRP
shrunken log2 fold change: 1.45

RRIRVRPPRLPRPRPRPYTQPRP
shrunken log2 fold change: -0.171

RRIRPRPPRLPRPRPRPSYKPRP
shrunken log2 fold change: -0.564

RRIRPRPPRLPRPRPRPEWAPRP
shrunken log2 fold change: 2.06

RRIRDRPPRLPRPRPRPKRAPRP
shrunken log2 fold change: -0.0273

RRIRQRPPRLPRPRPRPQEYPRP
shrunken log2 fold change: 0.0742

RRIRSRPPRLPRPRPRPGMGPRP
shrunken log2 fold change: 0.0599
